In patent publication US20140322225A1:

Key:
[1] = target: ADM (human or mouse, not stated for this control); experiment: cell-based or functional assay
[2] = target: human recombinant adrenomedullin receptor (CRLR+RAMP3) (human)

| Substance | Maximal inhibition of ADM bioactivity (ADM-Bioassay) (%) [1] | EC50 (read off the curve), cAMP formation [2] |
| --- | --- | --- |
| Non specific mouse IgG (antibody) | 0% | – |
| human adrenomedullin (hADM 1-52) (peptide) | – | 1 nM |
